Among the data in article doi:10.1101/2023.07.18.549521 are Kd values, retold here.

This experiment addresses LC3B LIR docking site (LDS) mutant (F52A/L53A) (UniProt Q9GZQ8). The experiment is described as follows: ITC.

Turning to “tepsin LIR motif peptide (residues 185-193)”, the Kd was more than 300 µM.
